± gives the half width of the 95% confidence interval.
Assay: folding stability dG unfold (combined trypsin and chymotrypsin); higher = more stable
In short: (§1)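 K50 was inferred by Bayesian fitting of sequencing counts obtained after protease digestion of designed mini-proteins. Unfolding free energy was derived by comparison with a sequence-predicted unfolded-state K50 and a shared folded-state K50, for each protease or both combined. The mini-proteins were under 80 residues, had no cysteine, were carried in a PA-tagged cDNA display construct, and were kept only if AlphaFold2 dimer inter-PAE exceeded 15.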

Sequence | folding stability dG unfold [kcal/mol]
SMKPGAEITIEPFPDGMYKITLPDGRERIFSPNGIAIEITPNKIKIEMFHPGKPIMEMEVEIPPPDPNDPSA [r9_901_TrROS] | 0.987 ± 0.43
SAGGKVSVEVRGNGPGSYVALWLPGPGTVIAREFEDGDRFDDLPEDAEPSRVVFFGYDGVPEEFELGSAGGS [r8_487_TrMRF] | 0.449 ± 0.043
SAGGSAGGSMTITKRSDGTIEVEIEISPEHPDVSPEEVKERVKKELEKKGIKTPVKITVKPVPESAGGSAGG [r6_480_JUSTAS] | 1.92 ± 0.19
SAGGSAGGSAGGSEVEVTTRPDGSIVARVRLPDGGVLTLVAEVGPDGSVVVTEASLSPESAGGSAGGSAGGS [r4_246_TrMRF] | 1.66 ± 0.052
SAGGSASMTIVPVKSEEELEAYIKTKNPKVFLLPLPDGTELVVKVNVDDPSKIEKVSLSKPEEILLSAGGSA [r15_11_JUSTAS] | 0.622 ± 0.25
SAGGSAPRVVRVETVTLTPPADSTVTARLLRLETPEGPRYVLAVRDPSTPVVVARPVPEGATLLEESAGGSA [r15_75_TrMRF] | -0.237 ± 0.11
SGLVEAIAKALGAESVTPHPDGTFSLRLKDGSYLKIKVEVLEVRERPDGSPEFIVKIEIEVFEGGKPEDESA [r9_648_TrMRF] | > 6
SAGGRLVEAIREANKQGKPMSREEIKDKIKDAIREQNEENGGKIPEIEITDIHWNPDNGYVPIEIKVSAGGS [r16_365_TrROS] | -0.561 ± 0.25
SAGEVELEVPIEALKKLPNLEGATVRVTVKLNENGELEITIEVEKAPEPPLTEEEKKKLLEEEEKKKKSAGG [r19_313_TrROS_Hall] | 1.06 ± 0.48
SAGGSLRQLIRALFKKKGIPIEPEKVDPNWVTFKVPNKDVKIDLPDGNKIEIKPNGYVRIRIPPDDLSAGGS [r8_297_TrROS] | -0.1 ± 0.4
SAGGSAGGSAGLLPIEELLKKNPEPVTFMVKDNDTLYRIEITPKDGKWTIEIEPLPGMKPSAGGSAGGSAGG [r11_549_TrROS] | 1.2 ± 0.043
SAGGMTPAVTETTIELPASDPEAAIAALRAAGWELLARERGPDGSVRMVFAAPTRRVTVDFVGPAAASAGGS [r16_170_JUSTAS] | 1.71 ± 0.032
SAGGSAGGSRIIFRIPPEFRENMPIEEIVEEFLPPGMPVEIEWERTPDPWYVTVDIEIPPGQLSAGGSAGGS [r12_716_TrROS] | 0.334 ± 0.27
SKPVLVKVKIVTKNKNGKKIEKELVIEMSEEDLEKLLEELLNDPNLKDVEKIEIEVVDAETGEVYTFTFPSA [r9_97_TrROS_Hall] | 2.89 ± 0.14
SAGGSAGGSAGGMELELTFATPEQAVEYAERFERLGYEVEVEYYPETGLVRVRVRLYPEESAGGSAGGSAGG [r7_623_TrMRF] | 3.76 ± 0.074
SAGMAEEAREAARLFASELAPRFGVEAEIPEVRVEFDPETGEVHVHLEVLFRLPEPRTVRRDFVLVLPLSAG [r5_381_TrMRF] | 1.67 ± 0.1
SAGVVVERTVTRTVPKDSATKEKIIEEIKASMPGMKVKEVEVLSETPLPDGSIVVTVKLTIERPPDVLESAG [r5_682_JUSTAS] | 2.98 ± 0.11
SAGGSAGGSAGGMIRIVNEETGEEIEISPEELEELLAKSDKPVRIEVDGKVIPLDAKDLSAGGSAGGSAGGS [r10_839_TrROS_Hall] | 0.352 ± 0.091
SAGGSAGGSAKIFARAPPGQWYRITVKYKGGNGDKKEHTATIPPNNPPPDIEDVEIEPIPPGSAGGSAGGSA [r18_223_TrROS] | 3.12 ± 0.25
SAGGGMVITTPQTTSTTFSPPTAPAVPAPFTQSSSFTIGNTKVTVTTTQAAGSGTTTVTLTTILPPLASAGG [r13_998_JUSTAS] | 1.12 ± 0.065
SAGGSAGGSAGSEIAEAIKKALEEAGVKEVKIEKVGPEPNVFRITFENGETIEITLPEDLSAGGSAGGSAGG [r11_765_TrROS_Hall] | 2.21 ± 0.1

Assay: folding stability dG unfold from trypsin proteolysis; higher = more stable
In short: as §1

Sequence | folding stability dG unfold [kcal/mol]
SAGGSAGGSAGGDDDWRIMINIEIWPYPNYVRIRFPIMIIPPDGKLIGSVEVTFWIPANDSAGGSAGGSAGG [r7_812_TrROS] | 3.2 ± 0.18
SAGGSAGIKAVLNLGDKPVLVLIEPLPDGSFPVIAIFADDGSKVEKVIPASDIGELLSLDPDKLTFSAGGSA [r15_629_TrMRF] | 0.859 ± 0.035
SAGGPKVEIVDITVTEEEVNGKKKKTVTVKVKLENGETLTITMSEEELKKLGLSVEEIAKKLAKKLKSAGGS [r16_625_TrROS_Hall] | 1.54 ± 0.035
SAGGSAGGSAGMKIEYEHDPNRNWYTVKIDFPNGPPKIPIQVPHDDMPPNDLRDWAKELFSAGGSAGGSAGG [r11_557_TrROS] | 0.459 ± 0.12
SAGGIDLSKLPKNSIVVITKVKVYPTKVGEPDGEGEGYVEVELRVFRNIPPTGKILSSPLPVKFKIASAGGS [r8_486_TrMRF] | 1.19 ± 0.04
SAGGSMSIPLKTEEDVKKAVEYIKQKLLEEGAPEGLKIDKVEVTKLPDGTYKITITFPNKTFELVGSAGGSA [r2_120_JUSTAS] | 2.56 ± 0.052
SAGGSAPPDTPLATIEFTLTPPDGSTTPTTITVPPSVVEEAAAAQKAAFEAAGWATTVTVATTTPLSAGGSA [r2_274_JUSTAS] | 0.676 ± 0.015
SAGGSAGGSAGGSYIIVQFPADEIKEALPPGFEIKSIERSPKNGWVMVAIRYPKDGKPISAGGSAGGSAGGS [r4_435_TrROS] | 1.04 ± 0.038
SAGGSAGGSMVLNFEDTKPGVSPEEAAARVAAKIRAEHDVAVLGVEVETSPTGGYHITITVDPSAGGSAGGS [r12_781_JUSTAS] | 0.325 ± 0.059
SAGGGVTITASPDGTVTITIGGKPITVPVHPGATLEFRVEPTPDGRPAVTITWTSPDGTPYTFTFTGSAGGS [r16_231_TrMRF] | 4.23 ± 0.14
SAGGMTITIPPSVPDADVERIVEEAEATFPQPVTLTRDPGRGRWTLTFDGPEDERREAIEALAARLASAGGS [r16_227_JUSTAS] | 0.0735 ± 0.14
SAGGSAMEIEVEKNEDGTVTIRFRDKETGEEIEIEIEVEPGMTEEEVREKAEELAEELKKKGIEIESAGGSA [r15_1022_TrROS_Hall] | 2.82 ± 0.19
SAGGSSSSALVTVPRTETFPGTTLTTETLITIDPETGTVKVTSTVYSEGEPVEVVPSTVPAAEVTLSAGGSA [r2_188_JUSTAS] | 0.566 ± 0.036
SMTTEEKVEVSVTVTPDPNSDNVTLTLTITKRTYAKDENGNWTEVSTETSTITVTLSPEEAAKLAAELLSSA [r9_642_JUSTAS] | 3.75 ± 0.2
SMPGVRVRLYTVRVKTPEGGELTAPIAVPAELFTEEEIRELVREAFPDAEDVEIEPAVLELPPAPGLLTASA [r9_841_TrMRF] | 1.39 ± 0.034
SAGGSAGGMELLPDGTLVLTLKAPSLEEALKAAEALAPPGAEVEIRFDEETKEVVIVIKLPPPESAGGSAGG [r6_859_TrROS_Hall] | 2.46 ± 0.1
SAGGEKDLYLVKYRVEIKNDKGEKKEFPVTAIATSLEELEETLKALTPKNAEAKVEILEVKPLKEVLSSAGG [r13_513_TrMRF] | 1.86 ± 0.091
SAGGKFKIVKIEVEEKTVKVKNKDGKIEKKKVKVIKVKIYKDGKLIKEVTFKSKEDMLNALKELLKKSAGGS [r8_21_TrROS_Hall] | 3.06 ± 0.11
SAGGMPPDARKLIREIAQDFGMSDIEPDEEGHVRINMPNPMMIQVDVENGEPKIKIYNNNKWREIPISAGGS [r16_296_TrROS] | 0.355 ± 0.079
SAGGSAGGSAGGSVPSVKLPKVGLKTDPVSSVLDFGEEKGDPVSVSIHLTLFLPDGTILLSAGGSAGGSAGG [r11_890_JUSTAS] | 0.161 ± 0.082
SAGGSAGGSAGKKIPFGKNVKILEIEEIDPDIIIIKFENSVFIVRILPNGEVKVIKFDIDSAGGSAGGSAGG [r11_612_TrMRF] | 1.83 ± 0.042

Sequence | folding stability dG unfold [kcal/mol]
SMKPGAEITIEPFPDGMYKITLPDGRERIFSPNGIAIEITPNKIKIEMFHPGKPIMEMEVEIPPPDPNDPSA [r9_901_TrROS] | 0.912 ± 0.19
SAGGKVSVEVRGNGPGSYVALWLPGPGTVIAREFEDGDRFDDLPEDAEPSRVVFFGYDGVPEEFELGSAGGS [r8_487_TrMRF] | 0.32 ± 0.032
SAGGSAGGSMTITKRSDGTIEVEIEISPEHPDVSPEEVKERVKKELEKKGIKTPVKITVKPVPESAGGSAGG [r6_480_JUSTAS] | 1.35 ± 0.044
SAGGSAGGSAGGSEVEVTTRPDGSIVARVRLPDGGVLTLVAEVGPDGSVVVTEASLSPESAGGSAGGSAGGS [r4_246_TrMRF] | 0.856 ± 0.026
SAGGSASMTIVPVKSEEELEAYIKTKNPKVFLLPLPDGTELVVKVNVDDPSKIEKVSLSKPEEILLSAGGSA [r15_11_JUSTAS] | 0.228 ± 0.12
SAGGSAPRVVRVETVTLTPPADSTVTARLLRLETPEGPRYVLAVRDPSTPVVVARPVPEGATLLEESAGGSA [r15_75_TrMRF] | -0.581 ± 0.23
SGLVEAIAKALGAESVTPHPDGTFSLRLKDGSYLKIKVEVLEVRERPDGSPEFIVKIEIEVFEGGKPEDESA [r9_648_TrMRF] | 4.56 ± 0.14
SAGGRLVEAIREANKQGKPMSREEIKDKIKDAIREQNEENGGKIPEIEITDIHWNPDNGYVPIEIKVSAGGS [r16_365_TrROS] | -0.152 ± 0.2
SAGEVELEVPIEALKKLPNLEGATVRVTVKLNENGELEITIEVEKAPEPPLTEEEKKKLLEEEEKKKKSAGG [r19_313_TrROS_Hall] | -0.203 ± 0.63
SAGGSLRQLIRALFKKKGIPIEPEKVDPNWVTFKVPNKDVKIDLPDGNKIEIKPNGYVRIRIPPDDLSAGGS [r8_297_TrROS] | -0.172 ± 0.68
SAGGSAGGSAGLLPIEELLKKNPEPVTFMVKDNDTLYRIEITPKDGKWTIEIEPLPGMKPSAGGSAGGSAGG [r11_549_TrROS] | 0.756 ± 0.021
SAGGMTPAVTETTIELPASDPEAAIAALRAAGWELLARERGPDGSVRMVFAAPTRRVTVDFVGPAAASAGGS [r16_170_JUSTAS] | 1.06 ± 0.014
SAGGSAGGSRIIFRIPPEFRENMPIEEIVEEFLPPGMPVEIEWERTPDPWYVTVDIEIPPGQLSAGGSAGGS [r12_716_TrROS] | 0.364 ± 0.16
SKPVLVKVKIVTKNKNGKKIEKELVIEMSEEDLEKLLEELLNDPNLKDVEKIEIEVVDAETGEVYTFTFPSA [r9_97_TrROS_Hall] | 2.01 ± 0.19
SAGGSAGGSAGGMELELTFATPEQAVEYAERFERLGYEVEVEYYPETGLVRVRVRLYPEESAGGSAGGSAGG [r7_623_TrMRF] | 3.97 ± 0.11
SAGMAEEAREAARLFASELAPRFGVEAEIPEVRVEFDPETGEVHVHLEVLFRLPEPRTVRRDFVLVLPLSAG [r5_381_TrMRF] | 1.3 ± 0.086
SAGVVVERTVTRTVPKDSATKEKIIEEIKASMPGMKVKEVEVLSETPLPDGSIVVTVKLTIERPPDVLESAG [r5_682_JUSTAS] | 3.23 ± 0.11
SAGGSAGGSAGGMIRIVNEETGEEIEISPEELEELLAKSDKPVRIEVDGKVIPLDAKDLSAGGSAGGSAGGS [r10_839_TrROS_Hall] | 0.85 ± 0.03
SAGGSAGGSAKIFARAPPGQWYRITVKYKGGNGDKKEHTATIPPNNPPPDIEDVEIEPIPPGSAGGSAGGSA [r18_223_TrROS] | 3.55 ± 0.14
SAGGGMVITTPQTTSTTFSPPTAPAVPAPFTQSSSFTIGNTKVTVTTTQAAGSGTTTVTLTTILPPLASAGG [r13_998_JUSTAS] | 1 ± 0.034
SAGGSAGGSAGSEIAEAIKKALEEAGVKEVKIEKVGPEPNVFRITFENGETIEITLPEDLSAGGSAGGSAGG [r11_765_TrROS_Hall] | 2.28 ± 0.15
